Data: publication PMC8363759 (Cell reports, 2021)
Residue numbers refer to the chain shown, from its start. Blank lines part the entries; values can stand above or below the binder they belong to.

Tests used:
[1] = biological target: T1, GST-h5MP1 (human, UniProt Q9Y6E2 1-419); experiment: pull-down
T1 sequence (looked up): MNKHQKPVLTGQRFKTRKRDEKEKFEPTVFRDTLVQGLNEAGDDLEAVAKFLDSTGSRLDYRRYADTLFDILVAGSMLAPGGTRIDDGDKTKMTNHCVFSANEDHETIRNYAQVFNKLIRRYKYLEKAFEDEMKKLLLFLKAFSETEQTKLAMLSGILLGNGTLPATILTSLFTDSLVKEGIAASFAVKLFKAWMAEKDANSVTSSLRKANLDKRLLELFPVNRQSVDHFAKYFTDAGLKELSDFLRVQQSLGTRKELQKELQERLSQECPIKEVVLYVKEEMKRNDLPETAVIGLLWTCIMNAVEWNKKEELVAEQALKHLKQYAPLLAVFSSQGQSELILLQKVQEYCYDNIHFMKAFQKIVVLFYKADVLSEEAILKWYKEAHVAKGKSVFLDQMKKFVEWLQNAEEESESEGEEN

[2] = biological target: T2, h5MP1-BN1 (human, UniProt Q9Y6E2 1-419, K380Q | K383Q | H386Q | K389Q | K391Q); experiment: ITC
T2 sequence (looked up): T1 sequence (looked up) with K380Q, K383Q, H386Q, K389Q, K391Q

[3] = biological target: T3, h5MP1 (WT) (human, UniProt Q9Y6E2 1-419); experiment: ITC
T3 sequence (looked up): T1 sequence (looked up)

- binding result [1]: binds
B1: GB-heIF3c_(20-102) (domain or fragment, human, UniProt Q99613 20-102, looked up)
chain: EELVTKPVGGNYGKQPLLLSEDEEDTKRVVRSAKDKRFEELTNLIRTIRNAMKIRDVTKCLEEFELLGKAYGKAKSIVDKEGV

- binding result [2]: binds
- binding result [3]: binds
B2: heIF2β_(53-136) (domain or fragment, human, UniProt P20042 53-136, looked up)
chain: DLEADEEDTRKKDASDDLDDLNFFNQKKKKKKTKKIFDIDEAEEGVKDLKIESDVQEPTEPEDDLDIMLGNKKKKKKNVKFPDE
